Measured values: the array DNA melting data of Ke et al.

Test: melting temperature; melt of duplexes
Conditions: sodium 0.0675 M; strand 1 µM

Substance	Tm
CGACGTGCCAGATGTGCTG+CAGCACATCGAGCACGTCG ((((((((..(((((((((+)))))))))..))))))))	56.2 °C
CGACGTGCATCATGTGCTG+CAGCACATAGCGCACGTCG ((((((((...((((((((+))))))))...))))))))	48.2 °C
CGACGTGCATGATGTGCTG+CAGCACATCTTGCACGTCG (((((((((.(((((((((+))))))))).)))))))))	58.3 °C
CGACGTGCAGGATGTGCTG+CAGCACATGACGCACGTCG ((((((((...((((((((+))))))))...))))))))	47.3 °C
CGACGTGCAACATGTGCTG+CAGCACATATTGCACGTCG ((((((((((.((((((((+)))))))).))))))))))	54.3 °C
CGACGTGCATCATGTGCTG+CAGCACATCTCGCACGTCG ((((((((...((((((((+))))))))...))))))))	46.5 °C
CGACGTGCACGATGTGCTG+CAGCACATAGCGCACGTCG ((((((((.(.((((((((+)))))))).).))))))))	50.3 °C
CGACGTGCATTATGTGCTG+CAGCACATAGGGCACGTCG ((((((((..(((((((((+)))))))))..))))))))	52 °C
CGACGTGCAACATGTGCTG+CAGCACATAGAGCACGTCG ((((((((...((((((((+))))))))...))))))))	48.9 °C
CGACGTGCCTAATGTGCTG+CAGCACATTTGGCACGTCG (((((((((.(((((((((+))))))))).)))))))))	58.7 °C
CGACGTGCCAAATGTGCTG+CAGCACATACTGCACGTCG ((((((((...((((((((+))))))))...))))))))	47.4 °C
CGACGTGCGTGATGTGCTG+CAGCACATGACGCACGTCG ((((((((((.((((((((+)))))))).))))))))))	57.8 °C
CGACGTGCGAAATGTGCTG+CAGCACATCAGGCACGTCG ((((((((...((((((((+))))))))...))))))))	49.7 °C
CGACGTGCAAGATGTGCTG+CAGCACATATCGCACGTCG ((((((((.(.((((((((+)))))))).).))))))))	50.3 °C
CGACGTGCCGCATGTGCTG+CAGCACATGCAGCACGTCG ((((((((.((((((((((+)))))))))).))))))))	60 °C
CGACGTGCCTGATGTGCTG+CAGCACATCCTGCACGTCG ((((((((..(((((((((+)))))))))..))))))))	53.1 °C
CGACGTGCGTTATGTGCTG+CAGCACATGTCGCACGTCG (((((((((..((((((((+))))))))..)))))))))	55 °C
CGACGTGCGGAATGTGCTG+CAGCACATACAGCACGTCG ((((((((.(.((((((((+)))))))).).))))))))	54.9 °C
CGACGTGCCCTATGTGCTG+CAGCACATCAGGCACGTCG (((((((((..((((((((+))))))))..)))))))))	53.8 °C
CGACGTGCTCGATGTGCTG+CAGCACATCGCGCACGTCG ((((((((.((((((((((+)))))))))).))))))))	59.6 °C
CGACGTGCATGATGTGCTG+CAGCACATAGCGCACGTCG ((((((((...((((((((+))))))))...))))))))	47.4 °C
CGACGTGCCTTATGTGCTG+CAGCACATCATGCACGTCG ((((((((.(.((((((((+)))))))).).))))))))	47.7 °C
CGACGTGCTGAATGTGCTG+CAGCACATCGTGCACGTCG ((((((((...((((((((+))))))))...))))))))	46.3 °C
CGACGTGCCTGATGTGCTG+CAGCACATCGTGCACGTCG ((((((((..(((((((((+)))))))))..))))))))	51.4 °C

Substance	Tm
CGACGTGCTTAATGTGCTG+CAGCACATCTGGCACGTCG ((((((((...((((((((+))))))))...))))))))	49.7 °C
CGACGTGCCATATGTGCTG+CAGCACATCCGGCACGTCG (((((((((..((((((((+))))))))..)))))))))	52.8 °C
CGACGTGCTTAATGTGCTG+CAGCACATGAAGCACGTCG ((((((((((.((((((((+)))))))).))))))))))	57.4 °C
CGACGTGCGTCATGTGCTG+CAGCACATTAAGCACGTCG ((((((((.(.((((((((+)))))))).).))))))))	53.3 °C
CGACGTGCCGGATGTGCTG+CAGCACATACCGCACGTCG ((((((((.(.((((((((+)))))))).).))))))))	53.6 °C
CGACGTGCCCCATGTGCTG+CAGCACATAATGCACGTCG ((((((((...((((((((+))))))))...))))))))	45.8 °C
CGACGTGCTCGATGTGCTG+CAGCACATGTCGCACGTCG ((((((((...((((((((+))))))))...))))))))	48.2 °C
CGACGTGCGTGATGTGCTG+CAGCACATGCAGCACGTCG ((((((((...((((((((+))))))))...))))))))	54.1 °C
CGACGTGCTAAATGTGCTG+CAGCACATTTGGCACGTCG ((((((((.((((((((((+)))))))))).))))))))	57.9 °C
CGACGTGCTGGATGTGCTG+CAGCACATGGCGCACGTCG ((((((((...((((((((+))))))))...))))))))	49.6 °C
CGACGTGCCCGATGTGCTG+CAGCACATTGCGCACGTCG ((((((((.(.((((((((+)))))))).).))))))))	51.2 °C
CGACGTGCGCCATGTGCTG+CAGCACATACCGCACGTCG (((((((((..((((((((+))))))))..)))))))))	51 °C
CGACGTGCTCAATGTGCTG+CAGCACATAAAGCACGTCG (((((((((..((((((((+))))))))..)))))))))	52.1 °C
CGACGTGCGAGATGTGCTG+CAGCACATTTGGCACGTCG ((((((((.(.((((((((+)))))))).).))))))))	52.5 °C
CGACGTGCGTGATGTGCTG+CAGCACATTCTGCACGTCG ((((((((...((((((((+))))))))...))))))))	51.8 °C
CGACGTGCTGGATGTGCTG+CAGCACATTCAGCACGTCG ((((((((((.((((((((+)))))))).))))))))))	60 °C
CGACGTGCTCTATGTGCTG+CAGCACATGACGCACGTCG ((((((((...((((((((+))))))))...))))))))	47 °C
CGACGTGCTCTATGTGCTG+CAGCACATGCGGCACGTCG ((((((((...((((((((+))))))))...))))))))	48.5 °C
CGACGTGCTCTATGTGCTG+CAGCACATTTGGCACGTCG ((((((((...((((((((+))))))))...))))))))	50.1 °C
CGACGTGCAGGATGTGCTG+CAGCACATGCAGCACGTCG ((((((((.(.((((((((+)))))))).).))))))))	55 °C
CGACGTGCTGGATGTGCTG+CAGCACATCTTGCACGTCG ((((((((..(((((((((+)))))))))..))))))))	56.6 °C
CGACGTGCGCTATGTGCTG+CAGCACATTACGCACGTCG (((((((((..((((((((+))))))))..)))))))))	53.4 °C
CGACGTGCACCATGTGCTG+CAGCACATAAAGCACGTCG ((((((((...((((((((+))))))))...))))))))	45 °C
CGACGTGCGCGATGTGCTG+CAGCACATCACGCACGTCG (((((((((.(((((((((+))))))))).)))))))))	62.2 °C

Substance	Tm
CGACGTGCGGTATGTGCTG+CAGCACATATTGCACGTCG ((((((((..(((((((((+)))))))))..))))))))	55 °C
CGACGTGCAGGATGTGCTG+CAGCACATTACGCACGTCG ((((((((...((((((((+))))))))...))))))))	50.7 °C
CGACGTGCGTTATGTGCTG+CAGCACATTGTGCACGTCG ((((((((...((((((((+))))))))...))))))))	47.2 °C
CGACGTGCAGTATGTGCTG+CAGCACATTCAGCACGTCG ((((((((.(.((((((((+)))))))).).))))))))	51.1 °C
CGACGTGCGTCATGTGCTG+CAGCACATGAAGCACGTCG ((((((((.((((((((((+)))))))))).))))))))	59.4 °C
CGACGTGCTGAATGTGCTG+CAGCACATATCGCACGTCG ((((((((...((((((((+))))))))...))))))))	50.2 °C
CGACGTGCCAGATGTGCTG+CAGCACATCTGGCACGTCG (((((((((((((((((((+)))))))))))))))))))	66.5 °C
CGACGTGCCCAATGTGCTG+CAGCACATTGTGCACGTCG ((((((((.((((((((((+)))))))))).))))))))	54.7 °C
CGACGTGCAATATGTGCTG+CAGCACATGGTGCACGTCG (((((((((..((((((((+))))))))..)))))))))	51 °C
CGACGTGCTATATGTGCTG+CAGCACATGAGGCACGTCG ((((((((...((((((((+))))))))...))))))))	52 °C
CGACGTGCATGATGTGCTG+CAGCACATTGTGCACGTCG (((((((((..((((((((+))))))))..)))))))))	53.2 °C
CGACGTGCCGGATGTGCTG+CAGCACATCAAGCACGTCG ((((((((..(((((((((+)))))))))..))))))))	54.8 °C
CGACGTGCCCTATGTGCTG+CAGCACATGATGCACGTCG ((((((((...((((((((+))))))))...))))))))	48.6 °C
CGACGTGCAGAATGTGCTG+CAGCACATGGTGCACGTCG (((((((((..((((((((+))))))))..)))))))))	52.6 °C
CGACGTGCCGTATGTGCTG+CAGCACATAGTGCACGTCG ((((((((..(((((((((+)))))))))..))))))))	49.5 °C
CGACGTGCAATATGTGCTG+CAGCACATCCAGCACGTCG ((((((((...((((((((+))))))))...))))))))	48.1 °C
CGACGTGCTTTATGTGCTG+CAGCACATGTGGCACGTCG ((((((((...((((((((+))))))))...))))))))	49.6 °C
CGACGTGCTCAATGTGCTG+CAGCACATACGGCACGTCG ((((((((...((((((((+))))))))...))))))))	48.1 °C
CGACGTGCGGAATGTGCTG+CAGCACATAAGGCACGTCG ((((((((...((((((((+))))))))...))))))))	51.5 °C
CGACGTGCGTAATGTGCTG+CAGCACATAGAGCACGTCG ((((((((...((((((((+))))))))...))))))))	54.4 °C
CGACGTGCGATATGTGCTG+CAGCACATCATGCACGTCG ((((((((...((((((((+))))))))...))))))))	50.1 °C
CGACGTGCTAGATGTGCTG+CAGCACATGTAGCACGTCG ((((((((((.((((((((+)))))))).))))))))))	56.8 °C
CGACGTGCGTGATGTGCTG+CAGCACATCAGGCACGTCG ((((((((.((((((((((+)))))))))).))))))))	59.6 °C
CGACGTGCCGAATGTGCTG+CAGCACATAGTGCACGTCG ((((((((...((((((((+))))))))...))))))))	45.9 °C
